Key:
[1] = biological target: the molecule itself; experiment: crystal structure; two crystal forms: P22(1)2(1) at 2.8 Å (two hexamers in the asymmetric unit) and P2(1)2(1)2(1) at 2.2 Å (one hexamer); PEG 8000 or PEG 10 000, 50 mM HEPES pH 7.1-7.3, 281 K
[2] = biological target: the molecule itself; experiment: SEC; purified variant, size by SEC; data not shown

| Protein | stoichiometry N [1] | stoichiometry N [2] |
| --- | --- | --- |
| Atrazine chlorohydrolase (AtzA), wild type (enzyme, Pseudomonas sp. strain ADP, Atrazine chlorohydrolase AtzA of Pseudomonas sp. strain ADP, wild-type atzA gene in the pCS150 expression vector; about 470 amino acids; one Fe2+ per monomer; hexamer is a trimer of dimers; also called wild-type protein; source: E. coli BL21 λDE3, purified (Ni-NTA, SEC, thrombin cleavage of the His tag, SEC)) MQTLSIQHGTLVTMDQYRRVLGDSWVHVQDGRIVALGVHAESVPPPADRVIDARGKVVLPGFINAHTHVNQILLRGGPSHGRQFYDWLFNVVYPGQKAMRPEDVAVAVRLYCAEAVRSGITTINENADSAIYPGNIEAAMAVYGEVGVRVVYARMFFDRMDGRIQGYVDALKARSPQVELCSIMEETAVAKDRITALSDQYHGTAGGRISVWPAPATTTAVTVEGMRWAQAFARDRAVMWTLHMAESDHDERIHGMSPAEYMECYGLLDERLQVAHCVYFDRKDVRLLHRHNVKVASQVVSNAYLGSGVAPVPEMVERGMAVGIGTDNGNSNDSVNMIGDMKFMAHIHRAVHRDADVLTPEKILEMATIDGARSLGMDHEIGSIETGKRADLILLDLRHPQTTPHHHLAATIVFQAYGNEVDTVLIDGNVVMENRRLSFLPPERELAFLEEAQSRATAILQRANMVANPAWRSL | 6 |  |
| AtzA Ala170Thr, Met256Ile, Pro258Thr, Tyr261Ser variant (enzyme, Pseudomonas sp. strain ADP, synthetic gene (Life Technologies) subcloned into pCS150; The PDB entries hold the wild-type parent of the same vector, not this variant; also called AtzA variant; the variant; source: E. coli BL21 λDE3, purified (Ni-NTA, SEC, thrombin cleavage of the His tag, SEC)) MQTLSIQHGTLVTMDQYRRVLGDSWVHVQDGRIVALGVHAESVPPPADRVIDARGKVVLPGFINAHTHVNQILLRGGPSHGRQFYDWLFNVVYPGQKAMRPEDVAVAVRLYCAEAVRSGITTINENADSAIYPGNIEAAMAVYGEVGVRVVYARMFFDRMDGRIQGYVDTLKARSPQVELCSIMEETAVAKDRITALSDQYHGTAGGRISVWPAPATTTAVTVEGMRWAQAFARDRAVMWTLHMAESDHDERIHGISTAESMECYGLLDERLQVAHCVYFDRKDVRLLHRHNVKVASQVVSNAYLGSGVAPVPEMVERGMAVGIGTDNGNSNDSVNMIGDMKFMAHIHRAVHRDADVLTPEKILEMATIDGARSLGMDHEIGSIETGKRADLILLDLRHPQTTPHHHLAATIVFQAYGNEVDTVLIDGNVVMENRRLSFLPPERELAFLEEAQSRATAILQRANMVANPAWRSL |  | 2 |

Source: PMC4356373, “The structure of the hexameric atrazine chlorohydrolase AtzA” (Acta Crystallographica Section D: Biological Crystallography, 2015)
